Patent publication US20160158369A1, “PHARMACEUTICAL COMPOSITION FOR RESPIRATORY ADMINISTRATION” (SEIKAGAKU CORPORATION, priority 2013, published 2016)

What was measured:
[1] = Drug dissociation test: polysaccharide derivative in buffer solution, 36°C, 1 week, HPLC; type: physicochemical
Protocol: In the examples relating to drug dissociation test, the drug dissociation ratio was evaluated as described below.
Sodium dihydrogen phosphate dihydrate (780 mg (5.0 mmol)) was dissolved in 500 mL of distilled water to give a liquid A. Separately, disodium hydrogen phosphate dodecahydrate (1.79 g (5.0 mmol)) was dissolved in 500 mL of distilled water to give a liquid B. By mixing the liquid A and liquid B at ratio of 2:3, a phosphate buffer solution of pH 7.5 was prepared.
0.62 g (10 mmol) of boric acid and 0.75 g (10 mmol) of potassium chloride were weighed and dissolved in 500 mL of distilled water to give a liquid C. Separately, by diluting 0.1 N sodium hydroxide solution with distilled water (×10 dilution), a liquid D was prepared.
50 mL of the liquid C and 7 mL of the liquid D were added to a 100 mL mess flask, and according to dilution to 100 mL with distilled water, a borate buffer solution of pH 8.0 was prepared. Furthermore, 50 mL of the liquid C and 40 mL of the liquid D were added to a 100 mL mess flask, and according to mess-up to 100 mL with distilled water, a borate buffer solution of pH 9.0 was prepared.
Each polysaccharide derivative obtained from above was dissolved in a buffer solution at each pH so as to have a concentration of 5 mg/10 mL, and heated for 1 week in an incubator at 36° C. Then, the drug dissociation ratio during the incubation was evaluated every 24 hours by liquid chromatography (HPLC).
The evaluation was performed by measuring the ratio between the drug amount remained in a polysaccharide derivative and the dissociated drug amount according to use of a size exclusion chromatography column (manufactured by TOSOH, TSKgel α-6000, 7.8 mmI.D.×30 cm).
Detailed conditions for the liquid chromatography are as follows.
Analysis time: 40 minutes
Solution for elution: acetonitrile (for HPLC):physiological saline=1:2
Detector: UV detector (240 nm)

[2] = system: rat antigen-induced asthma model; test: Rat antigen-induced asthma model, eosinophils in bronchoalveolar lavage fluid; type: in vivo
Protocol: Intraperitoneal administration of 1 mL of aluminum hydroxide gel containing ovalbumin (1 mg/mL) was performed 3 times with one day interval. 14 Days after performing the first sensitization, intraperitoneal administration of 1 mL of aluminum hydroxide gel containing ovalbumin (1 mg/mL) was performed again followed by the second sensitization. 7 Days after the second sensitization, inhalation exposure of physiological saline (10 mg/mL) containing ovalbumin was performed by using a nebulizer five times with one day interval in order to induce asthma.
The 0.6 mg/mL prednisolone suspension was orally administered by using a sonde for oral administration under no anesthesia to have prednisolone amount of 3 mg/kg.
Meanwhile, the test was performed with n=6 to 12.
24 Hours after the fifth exposure, phosphate buffered saline (2 mL) containing 0.1% bovine serum albumin heated to 37° C. was injected to a bronchus of a rat under pentobarbital anesthesia and collected thereafter. This procedure was repeated 5 times to have bronchoalveolar lavage fluid. The bronchoalveolar lavage fluid was centrifuged for 3 minutes at 200×g and room temperature. The supernatant was discarded, and the pellet was re-suspended in phosphate buffered saline (500 μL) containing 0.1% bovine serum albumin.
Subsequently, a smear sample of the suspension was prepared followed by Diff-Quik staining. According to cell fractionation, ratio of eosinophil in white blood cells was calculated. According to integration with the number of white blood cells in bronchoalveolar lavage fluid, the number of […] in bronchoalveolar lavage fluid was calculated. Meanwhile, the number of white blood cells in bronchoalveolar lavage fluid was measured by using a blood cell counting chamber. The results are shown in FIG. 4 and the following table.
Dose responsiveness of the compound va in an OVA sensitized rat model was determined in the same manner as (Test example B2).
There were three doses for determination, i.e., 0.35 mg/kg, 3.5 mg/kg, and 35 mg/kg, such that the budesonide amount for administration is 0.1 mg/kg, 1 mg/kg, or 10 mg/kg.

[3] = system: mouse antigen-induced airway hypersensitivity model; test: Mouse antigen-induced airway hypersensitivity model (AHR, Penh, PC100); type: in vivo; details: single intratracheal administration 40 μL, 1 week before the evaluation
Protocol: For the evaluation, BALB/cCrSlc (Japan SLC, Inc., 11-week old) was used. […] Intratracheal administration (volume: 40 μL) of the budesonide suspension, mixture of budesonide and chondroitin sulfate, and an aqueous solution of the compound va was performed by using a glass microsyringe (Ito Micro Syringe, manufactured by ITO SEISAKUSHO CO., LTD.) after fixing the mouse on its back under general anesthesia. […] The administration was performed only once, and it was performed 6 days after the second sensitization. Meanwhile, the test was performed with n=6. Airway hyper responsiveness (AHR) evaluation was performed as described below. On Day 13 after the second sensitization, the mouse was forced to inhale metacholine (hereinbelow, MCh) of 0, 5, 10 and 20 mM, and the airway resistance parameter (Penh) at 3 minutes after the inhalation of metacholine with different concentrations was measured by a device for measuring unrestrained respiratory function (manufactured by Buxco Research System). AUC value of the Penh value was measured, and a graph of MCh concentration vs. AUC was established.

[4] = system: mouse model having antigen-induced rhinitis; test: Mouse model having antigen-induced rhinitis, cough number; type: in vivo; details: single intranasal administration 20 μL
Protocol: As a negative control, phosphate buffered saline was used. As a comparative control, 4 mg/mL budesonide suspension was used. […] From Day 1 after the final nasal cavity sensitization—induction, 20 μL of ovalbumin physiological saline (40 mg/mL) was intranasally administered with 24 hour interval to induce a rhinitis reaction. The induction of the rhinitis reaction was performed 8 times in total for 8 days. […] The phosphate buffered saline, aqueous solution of the compound va, and budesonide suspension were administered only once on the day of inducing initial rhinitis reaction, and 1 hour before administering physiological saline containing ovalbumin. Meanwhile, the test was basically performed with n=6. From the first day to Day 7 after inducing initial rhinitis reaction, number of coughs during 10 minutes after the administration of ovalbumin-containing physiological saline was measured.

Chondroitin Sulfate Introduced with 21-β-Alanyl-Budesonide (25 kDa) [Compound va]
Dissociation ratio (%/day) ([1]; pH 7.4, 36°C): 0.8 %/day
drug dissociation ratio ([1]; pH 7.4, 36°C, day 0): 0.0%
drug dissociation ratio ([1]; pH 7.4, 36°C, day 1): 0.4%
drug dissociation ratio ([1]; pH 7.4, 36°C, day 2): 1.0%
drug dissociation ratio ([1]; pH 7.4, 36°C, day 3): 1.8%
drug dissociation ratio ([1]; pH 7.4, 36°C, day 4): 3.1%
drug dissociation ratio ([1]; pH 7.4, 36°C, day 5): 3.8%
drug dissociation ratio ([1]; pH 7.4, 36°C, day 6): 4.4%
drug dissociation ratio ([1]; pH 7.4, 36°C, day 7): 5.3%
Dissociation ratio (%/day) ([1]; pH 8.0, 36°C): 2.5 %/day
drug dissociation ratio ([1]; pH 8.0, 36°C, day 0): 0.0%
drug dissociation ratio ([1]; pH 8.0, 36°C, day 1): 2.3%
drug dissociation ratio ([1]; pH 8.0, 36°C, day 2): 4.2%
drug dissociation ratio ([1]; pH 8.0, 36°C, day 3): 7.7%
drug dissociation ratio ([1]; pH 8.0, 36°C, day 4): 10.3%
drug dissociation ratio ([1]; pH 8.0, 36°C, day 5): 12.8%
drug dissociation ratio ([1]; pH 8.0, 36°C, day 6): 14.0%
drug dissociation ratio ([1]; pH 8.0, 36°C, day 7): 17.5%
eosinophil-inhibiting activity ([2]; 0.35 mg/kg (0.1 mg/kg in budesonide amount), 1 week after the administration): eosinophil-inhibiting activity was shown
dose responsiveness of eosinophil-inhibiting activity ([2]; 0.35, 3.5 and 35 mg/kg): observed with dose responsiveness
inhibition of enhanced sensitivity to MCh (airway hyper responsiveness, PC100) [3]: inhibited to the level of the control group
change in average cough number Day 1 to Day 7 and total cough number during 8 days [4]: exhibited an inhibition
